Laboratory results reported in patent US20120219559A1 (Johns Hopkins, published 2012).
Like-named read-outs stand apart in the source and are kept apart here.

Legend:
[1] = target: T1, human B7-H2Ig fusion protein (human, UniProt O75144 19-258); experiment: SPR (BIAcore 3000), ICOSIg injected over B7-H2Ig coupled at 500 RU, 1:1 fit
T1 construct: Ig (Fc) part not given
T1 sequence: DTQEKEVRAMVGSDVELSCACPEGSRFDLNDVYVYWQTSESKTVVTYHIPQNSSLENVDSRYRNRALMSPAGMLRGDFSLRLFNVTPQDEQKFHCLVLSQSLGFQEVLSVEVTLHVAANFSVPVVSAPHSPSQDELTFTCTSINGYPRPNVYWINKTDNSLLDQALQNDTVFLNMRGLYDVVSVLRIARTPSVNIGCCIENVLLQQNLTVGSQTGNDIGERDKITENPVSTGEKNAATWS
Protocol: (§1) Protein interactions were measured and analyzed on a BIAcore 3000 instrument (BIAcore AB, Uppsala, Sweden) performed at 25° C. as described previously (3). […] Hepes, pH 7.4, containing 0.15 M NaCl, 0.005% surfactant P20 (HBS) was used as running buffer. […] All other reagents were purchased from BIAcore. […] The remaining activated carboxyl groups were blocked with 1 M ethanolamine (pH 8.5). Subsequently, the flow cells were extensively washed with HBS to generate a stable baseline. […] The flow cells were regenerated by two consecutive 10-second pulse with 10 mM NaOH. Data was analyzed by BIAevaluation software 4.1 (BIAcore).

[2] = target: T1, human B7-H2Ig fusion protein; experiment: SPR (BIAcore 3000); comparison of ICOSIg and CD28Ig on immobilized B7-H2Ig
Protocol: (§2) For all experiments, the same fusion proteins were injected into uncoated control flow cells to serve as the control. Binding data was overlaid with the fit of 1:1 interaction model.
as §1, with “Surface Plasmon Resonance. Protein” for “Protein”, “20.” for “(3).”, “pulses” for “pulse”

[3] = target: T2, human CTLA-4, full length, expressed on cells (CTLA-4+293T cells) (human, UniProt P16410 36-223); experiment: CDS well image, 293T cells transfected with the human gene, stained with the human fusion protein
T2 sequence: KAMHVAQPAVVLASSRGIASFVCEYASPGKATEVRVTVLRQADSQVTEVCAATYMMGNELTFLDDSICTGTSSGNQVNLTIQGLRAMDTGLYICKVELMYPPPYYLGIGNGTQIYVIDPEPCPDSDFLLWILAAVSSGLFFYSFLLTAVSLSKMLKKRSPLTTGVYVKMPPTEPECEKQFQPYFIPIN

[4] = target: T3, human B7-2 (CD86, B70) expressed on 293T cells (human, UniProt P42081 24-329); experiment: as above
T3 construct: whole, on cells
T3 sequence (looked up): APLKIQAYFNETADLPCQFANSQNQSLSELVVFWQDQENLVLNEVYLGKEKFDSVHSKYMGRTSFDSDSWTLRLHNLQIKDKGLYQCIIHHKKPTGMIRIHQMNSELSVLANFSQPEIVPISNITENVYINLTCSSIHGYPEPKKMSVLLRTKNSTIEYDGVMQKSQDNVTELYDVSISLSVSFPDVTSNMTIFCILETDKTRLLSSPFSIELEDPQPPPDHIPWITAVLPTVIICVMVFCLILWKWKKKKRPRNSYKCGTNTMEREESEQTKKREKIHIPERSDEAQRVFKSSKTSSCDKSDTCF

[5] = target: T1, human B7-H2Ig fusion protein; experiment: SPR (BIAcore 3000), ICOSIg injected over B7-H2Ig coupled at 500 RU, 1:1 fit; remark: listed apart in the source
Protocol: as §2
as §1, with “Surface Plasmon Resonance. Protein” for “Protein”, “20.” for “(3).”, “pulses” for “pulse”

Kd [1]: 16 nM
fold higher affinity than CD28 for binding B7-H2 [2]: ~100 fold
binding result [3]: no binding
binding result [4]: no binding
Kd [5]: 16 nM
B1: human ICOSIg fusion protein (Fc fusion)
chain: EINGSANYEMFIFHNGGVQILCKYPDIVQQFKMQLLKGGQILCDLTKTKGSGNTVSIKSLKFCHSQLSNNSVSFFLYNLDHSHANYYFCNLSIFDPPPFKVTLTGGYLHIYESQLCCQLKF
notes: Bought from R&D Systems; Ig (Fc) part not given
